Results as given in patent US20220144956A1 (published 2022).

B1: H1 L1.1 XENP34564 (antibody, V domains shown)
VH: QLQVQESGPGLVKPSETLSLTCTVSGGSISNSYFSWGWIRQPPGKGLEWIGSFYYGEKTYYNPSLKSRATISIDTSKSQFSLKLSSVTAADTAVYYCPRGPTMIRGVIDSWGQGTLVTVSS
VL: EIVMTQSPATLSLSPGERATLSCRASQSVRSYLAWYQQKPGQAPRLLIYDASNRATGIPARFSGSGSGTDFTLTISSLEPEDFAVYYCQQRSNWPPTFGQGTKVEIK
B2: H1 L1.6 XENP34569 (antibody, V domains shown)
VH: QLQVQESGPGLVKPSETLSLTCTVSGGSISNSYFSWGWIRQPPGKGLEWIGSFYYGEKTYYNPSLKSRATISIDTSKSQFSLKLSSVTAADTAVYYCPRGPTMIRGVIDSWGQGTLVTVSS
VL: EIVLTQSPATLSLSPGERATLSCGASQSVRSYLAWYQQKPGQAPRLLIYDASNRATGIPARFSGSGSGTDFTLTISSLEPEDFAVYYCQQRSNWPPTFGQGTKVEIK
B3: H1 L1.4 XENP34567 (antibody, V domains shown)
VH: QLQVQESGPGLVKPSETLSLTCTVSGGSISNSYFSWGWIRQPPGKGLEWIGSFYYGEKTYYNPSLKSRATISIDTSKSQFSLKLSSVTAADTAVYYCPRGPTMIRGVIDSWGQGTLVTVSS
VL: EIVLTQSPATLSVSPGERATLSCRASQSVRSYLAWYQQKPGQAPRLLIYDASNRATGIPARFSGSGSGTDFTLTISSLEPEDFAVYYCQQRSNWPPTFGQGTKVEIK
B4: H1.100 L1 XENP34556 (antibody, V domains shown)
VH: QLQVQESGPGLVKPSETLSLTCTVSGGSISNSYFSWGWIRQPPGKGLEWIGSFYYGEKTYYNPSLKSRATISIDTSKSQFSLKLSSVTAADTAVYYCPRGPTMIRGVFDSWGQGTLVTVSS
VL: EIVLTQSPATLSLSPGERATLSCRASQSVRSYLAWYQQKPGQAPRLLIYDASNRATGIPARFSGSGSGTDFTLTISSLEPEDFAVYYCQQRSNWPPTFGQGTKVEIK
B5: H1.103 L1 XENP34559 (antibody, V domains shown)
VH: QLQVQESGPGLVKPSETLSLTCTVSGGSISNSYFSWGWIRQPPGKGLEWIGSFYYGEKTYYNPSLKSRATISIDTSKSQFSLKLSSVTAADTAVYYCPRGPTMIRGVIDLWGQGTLVTVSS
VL: EIVLTQSPATLSLSPGERATLSCRASQSVRSYLAWYQQKPGQAPRLLIYDASNRATGIPARFSGSGSGTDFTLTISSLEPEDFAVYYCQQRSNWPPTFGQGTKVEIK
B6: H1 L1.2 XENP34565 (antibody, V domains shown)
VH: QLQVQESGPGLVKPSETLSLTCTVSGGSISNSYFSWGWIRQPPGKGLEWIGSFYYGEKTYYNPSLKSRATISIDTSKSQFSLKLSSVTAADTAVYYCPRGPTMIRGVIDSWGQGTLVTVSS
VL: EIVLTQSPGTLSLSPGERATLSCRASQSVRSYLAWYQQKPGQAPRLLIYDASNRATGIPARFSGSGSGTDFTLTISSLEPEDFAVYYCQQRSNWPPTFGQGTKVEIK
B7: H1.101 L1 XENP34557 (antibody, V domains shown)
VH: QLQVQESGPGLVKPSETLSLTCTVSGGSISNSYFSWGWIRQPPGKGLEWIGSFYYGEKTYYNPSLKSRATISIDTSKSQFSLKLSSVTAADTAVYYCPRGPTMIRGVMDSWGQGTLVTVSS
VL: EIVLTQSPATLSLSPGERATLSCRASQSVRSYLAWYQQKPGQAPRLLIYDASNRATGIPARFSGSGSGTDFTLTISSLEPEDFAVYYCQQRSNWPPTFGQGTKVEIK
B8: H1.87 L1 XENP34543 (antibody, V domains shown)
VH: QLQVQESGPGLVKPSETLSLTCTVSGGSISNSYFSWGWIRQPPGKGLEWIGSFYYGEKTYYNPSLKSRATISIDTSKSQFSLKLSSVTAADTAVYYCPRGPTQIRGVIDSWGQGTLVTVSS
VL: EIVLTQSPATLSLSPGERATLSCRASQSVRSYLAWYQQKPGQAPRLLIYDASNRATGIPARFSGSGSGTDFTLTISSLEPEDFAVYYCQQRSNWPPTFGQGTKVEIK
B9: H1.106 L1 XENP34562 (antibody, V domains shown)
VH: QLQVQESGPGLVKPSETLSLTCTVSGGSISNSYFSWGWIRQPPGKGLEWIGSFYYGEKTYYNPSLKSRATISIDTSKSQFSLKLSSVTAADTAVYYCPRGPTMIRGVIDSWGQGTMVTVSS
VL: EIVLTQSPATLSLSPGERATLSCRASQSVRSYLAWYQQKPGQAPRLLIYDASNRATGIPARFSGSGSGTDFTLTISSLEPEDFAVYYCQQRSNWPPTFGQGTKVEIK
B10: H1.91 L1 XENP34547 (antibody, V domains shown)
VH: QLQVQESGPGLVKPSETLSLTCTVSGGSISNSYFSWGWIRQPPGKGLEWIGSFYYGEKTYYNPSLKSRATISIDTSKSQFSLKLSSVTAADTAVYYCPRGPTMVRGVIDSWGQGTLVTVSS
VL: EIVLTQSPATLSLSPGERATLSCRASQSVRSYLAWYQQKPGQAPRLLIYDASNRATGIPARFSGSGSGTDFTLTISSLEPEDFAVYYCQQRSNWPPTFGQGTKVEIK
B11: H1.107 L1 XENP34563 (antibody, V domains shown)
VH: QLQVQESGPGLVKPSETLSLTCTVSGGSISNSYFSWGWIRQPPGKGLEWIGSFYYGEKTYYNPSLKSRATISIDTSKSQFSLKLSSVTAADTAVYYCPRGPTMIRGVIDSWGQGTTVTVSS
VL: EIVLTQSPATLSLSPGERATLSCRASQSVRSYLAWYQQKPGQAPRLLIYDASNRATGIPARFSGSGSGTDFTLTISSLEPEDFAVYYCQQRSNWPPTFGQGTKVEIK
B12: H1.102 L1 XENP34558 (antibody, V domains shown)
VH: QLQVQESGPGLVKPSETLSLTCTVSGGSISNSYFSWGWIRQPPGKGLEWIGSFYYGEKTYYNPSLKSRATISIDTSKSQFSLKLSSVTAADTAVYYCPRGPTMIRGVIDHWGQGTLVTVSS
VL: EIVLTQSPATLSLSPGERATLSCRASQSVRSYLAWYQQKPGQAPRLLIYDASNRATGIPARFSGSGSGTDFTLTISSLEPEDFAVYYCQQRSNWPPTFGQGTKVEIK
B13: XENP36169 H1.186 L1 (antibody, V domains shown)
VH: QLQVQESGPGLVKPSETLSLTCTVSGGSISESYFSWGWIRQPPGKGLEWIGSFYYGGKTYYNPSLKSRATISIDTSKNQFSLKLSSVTAADTAVYYCARGPTTIRGVIDSWGQGTLVTVSS
VL: EIVLTQSPATLSLSPGERATLSCRASQSVRSYLAWYQQKPGQAPRLLIYDASNRATGIPARFSGSGSGTDFTLTISSLEPEDFAVYYCQQRSNWPPTFGQGTKVEIK
B14: XENP36170 H1.187 L1 (antibody, V domains shown)
VH: QLQVQESGPGLVKPSETLSLTCTVSGGSISESYFSWGWIRQPPGKGLEWIGSFYYGGKTYYNPSLKSRATISIDTSKNQFSLKLSSVTAADTAVYYCARGPTVIRGVIDSWGQGTLVTVSS
VL: EIVLTQSPATLSLSPGERATLSCRASQSVRSYLAWYQQKPGQAPRLLIYDASNRATGIPARFSGSGSGTDFTLTISSLEPEDFAVYYCQQRSNWPPTFGQGTKVEIK
B15: XENP36167 H1.184 L1 (antibody, V domains shown)
VH: QLQVQESGPGLVKPSETLSLTCTVSGGSISESYFSWGWIRQPPGKGLEWIGSFYYGGKTYYNPSLKSRATISIDTSKNQFSLKLSSVTAADTAVYYCARGPTMIRGVIDSWGQGTLVTVSS
VL: EIVLTQSPATLSLSPGERATLSCRASQSVRSYLAWYQQKPGQAPRLLIYDASNRATGIPARFSGSGSGTDFTLTISSLEPEDFAVYYCQQRSNWPPTFGQGTKVEIK
B16: XENP36183 H1.200 L1 (antibody, V domains shown)
VH: QLQVQESGPGLVKPSETLSLTCTVSGGSISNAYFSWGWIRQPPGKGLEWIGSFYYGGKTYYNPSLKSRATISIDTSKNQFSLKLSSVTAADTAVYYCARGPTMIRGVIDSWGQGTLVTVSS
VL: EIVLTQSPATLSLSPGERATLSCRASQSVRSYLAWYQQKPGQAPRLLIYDASNRATGIPARFSGSGSGTDFTLTISSLEPEDFAVYYCQQRSNWPPTFGQGTKVEIK
B17: XENP36175 H1.192 L1 (antibody, V domains shown)
VH: QLQVQESGPGLVKPSETLSLTCTVSGGSISTSYFSWGWIRQPPGKGLEWIGSFYYGGKTYYNPSLKSRATISIDTSKNQFSLKLSSVTAADTAVYYCARGPTMIRGVIDSWGQGTLVTVSS
VL: EIVLTQSPATLSLSPGERATLSCRASQSVRSYLAWYQQKPGQAPRLLIYDASNRATGIPARFSGSGSGTDFTLTISSLEPEDFAVYYCQQRSNWPPTFGQGTKVEIK
B18: XENP36184 H1.201 L1 (antibody, V domains shown)
VH: QLQVQESGPGLVKPSETLSLTCTVSGGSISNAYFSWGWIRQPPGKGLEWIGSFYYGGKTYYNPSLKSRATISIDTSKNQFSLKLSSVTAADTAVYYCARGPTLIRGVIDSWGQGTLVTVSS
VL: EIVLTQSPATLSLSPGERATLSCRASQSVRSYLAWYQQKPGQAPRLLIYDASNRATGIPARFSGSGSGTDFTLTISSLEPEDFAVYYCQQRSNWPPTFGQGTKVEIK
B19: XENP36177 H1.194 L1 (antibody, V domains shown)
VH: QLQVQESGPGLVKPSETLSLTCTVSGGSISTSYFSWGWIRQPPGKGLEWIGSFYYGGKTYYNPSLKSRATISIDTSKNQFSLKLSSVTAADTAVYYCARGPTTIRGVIDSWGQGTLVTVSS
VL: EIVLTQSPATLSLSPGERATLSCRASQSVRSYLAWYQQKPGQAPRLLIYDASNRATGIPARFSGSGSGTDFTLTISSLEPEDFAVYYCQQRSNWPPTFGQGTKVEIK
B20: XENP35107 H1.36 L1 (antibody, V domains shown)
VH: QLQVQESGPGLVKPSETLSLTCTVSGGSISNSYFSWSWIRQPPGKGLEWIGSFYYGEKTYYNPSLKSRATISIDTSKSQFSLKLSSVTAADTAVYYCPRGPTMIRGVIDSWGQGTLVTVSS
VL: EIVLTQSPATLSLSPGERATLSCRASQSVRSYLAWYQQKPGQAPRLLIYDASNRATGIPARFSGSGSGTDFTLTISSLEPEDFAVYYCQQRSNWPPTFGQGTKVEIK
B21: XENP36185 H1.202 L1 (antibody, V domains shown)
VH: QLQVQESGPGLVKPSETLSLTCTVSGGSISNAYFSWGWIRQPPGKGLEWIGSFYYGGKTYYNPSLKSRATISIDTSKNQFSLKLSSVTAADTAVYYCARGPTTIRGVIDSWGQGTLVTVSS
VL: EIVLTQSPATLSLSPGERATLSCRASQSVRSYLAWYQQKPGQAPRLLIYDASNRATGIPARFSGSGSGTDFTLTISSLEPEDFAVYYCQQRSNWPPTFGQGTKVEIK
B22: XENP36164 H1.181 L1 (antibody, V domains shown)
VH: QLQVQESGPGLVKPSETLSLTCTVSGGSISNSYFSWGWIRQPPGKGLEWIGSFYYGGKTYYNPSLKSRATISIDTSKNQFSLKLSSVTAADTAVYYCARGPTMIRGVIDSWGQGTLVTVSS
VL: EIVLTQSPATLSLSPGERATLSCRASQSVRSYLAWYQQKPGQAPRLLIYDASNRATGIPARFSGSGSGTDFTLTISSLEPEDFAVYYCQQRSNWPPTFGQGTKVEIK

biological target: T1, human TGFßRII (antigen of the Octet experiments) (human, UniProt P37173 23-166); assay: BLI (Octet)
T1 sequence (P37173 23-166): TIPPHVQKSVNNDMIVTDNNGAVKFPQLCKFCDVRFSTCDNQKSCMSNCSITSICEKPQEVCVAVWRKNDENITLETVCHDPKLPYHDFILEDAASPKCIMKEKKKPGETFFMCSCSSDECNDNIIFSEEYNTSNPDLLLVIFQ

First: B1
Second: B2
The Kd of the first is 3.9-fold lower: 0.569 nM for the first, 2.24 nM for the second. The first binds more tightly here.

B3 and B4 are within 1.5-fold of each other in Kd: 0.601 nM for the first, 0.898 nM for the second.

Compared with B5, B6 is 2.3-fold higher in Kd: 0.16 nM for the first, 0.361 nM for the second. The first binds more tightly here.

First: B7
Second: B8
The Kd of the first is 3.2-fold lower: 0.492 nM for the first, 1.58 nM for the second.

B9 and B10 are within 1.5-fold of each other in Kd: 0.624 nM for the first, 0.512 nM for the second.

B11 and B12 are within 1.5-fold of each other in Kd: 0.109 nM for the first, 0.139 nM for the second.

biological target: T1, human TGFßRII (antigen of the Octet …); assay: not given

B13 and B14 are within 1.5-fold of each other in Kd: 10.1 nM for the first, 9.08 nM for the second.

B15 and B16 are within 1.5-fold of each other in Kd: 4.34 nM for the first, 3.02 nM for the second.

B17 and B18 are within 1.5-fold of each other in Kd: 4.38 nM for the first, 5.27 nM for the second.

Going from B19 to B20, the Kd falls from 9.77 nM to 2.89 nM (3.4-fold). The second binds more tightly here.

Compared with B21, B22 is 3.2-fold lower in Kd: 7.4 nM for the first, 2.29 nM for the second.
